Laboratory results from patent US7314621B2, “Cytidine deaminase” (Kyoto University, priority 1999, dated 2008).

What was measured:
[1] = tested on: AU-rich RNA (5-AU); assay: Gel retardation assay, avidity to AU-rich RNA; assay type: binding
Excerpt: Since the AID protein has a functional cytidine deaminase activity as well as a structural similarity to APOBEC-1, to examine RNA editing activity in the AID protein, avidity to AU-rich RNA (5-AU) and apoB RNA (which are RNA substrates for APOBEC-1) was examined.

[2] = Cytidine deaminase activity of the AID protein ([3H]deoxycytidine to deoxyuridine, TLC); assay type: biochemical; details: AID-GST fusion protein 2 to 600 ng, pH 7.5, 2 to 4 hours
Method: A cytidine deaminase activity of AID was measured by the same method as in the previous report (J Biol. Chem. 270:14768-14775, 1995).
The purified AID-GST fusion protein prepared in the above (2, 4, 6, 8, 10, 20, 40, 60, 100, 200, 300, 400, and 600 ng) was incubated in the buffer (pH 7.5, the total amount 10 μl) containing 45 mM Tris with 3.3 μCi [^3H] deoxycytidine (24.8 Ci/mmol, DuPont) and 250 μM cytidine for 2 to 4 hours. The reaction was terminated by adding deoxycytidine (2 μl of 10 μg/ml) and deoxyuridine (2 μl of 10 μg/ml). Insoluble substances were removed by centrifugation, and the reaction mixture (4 μl) was subjected to the polyethylene imine-cellulose thin layer chromatography plate (VWR). The plate was developed in isopropyl alcohol/10% HCl (7:2 v/v). The plate was exposed to ultraviolet light (254 nm) for visualization and bands corresponding to deoxycytidine and deoxyuridine were collected, and added to Ultima Gold scintillation solution to be quantified by liquid scintillation photometer (Packard)

B1: AID protein: activation-induced cytidine deaminase, novel mouse protein (SEQ ID NO:2), tested as purified GST fusion protein (protein)
chain: MDSLLMKQKKFLYHFKNVRWAKGRHETYLCYVVKRRDSATSCSLDFGHLRNKSGCHVELLFLRYISDWDLDPGRCYRVTWFTSWSPCYDCARHVAEFLRWNPNLSLRIFTARLYFCEDRKAEPEGLRRLHRAGVQIGIMTFKDYFYCWNTFVENRERTFKAWEGLHENSVRLTRQLRRILLPLYEVDDLRDAFRMLGF
modifications: left off: a dimerising Fc or GST
avidity to AU-rich RNA (5-AU) [1]: did not show avidity
cytidine deaminase activity [2]: concentration-dependent cytidine deaminase activity
